Experimental data from US20140179898A1.

Molecular target: IgG1-type humanized monoclonal antibody
Assay: stepwise pH affinity chromatography (bound at pH 7.0, elution buffer pH 4.0), bought column

Substance: HiTrap rProtein A FF (GE Healthcare) (from UniProt P38507 37-327)
- pH of the antibody's elution peak: 3.7 pH
